This is an account of results in PMC8464830 (Biomolecules, 2021).

The target of the experiment is T1, human Calmodulin-1 (human, UniProt P0DP23 1-149).
T1 construct: also called hCaM-1; hCaM
Kind of experiment: SPR. The settings on record: both partners purified.

B1: HIV-1 MA clade C (92BR025.8) construct with residue 1-109, lacking the C-terminal helix α5 (domain or fragment)
chain: MGARASILRGGKLDAWERIKLKPGGKKHYMMKHLVWASRELERFALDPGLLETSEGCKQIMKQLQPALQTGTKELISLHNTVATLYCVHEKIDVRDTKEALDKIKEEQN
For B1, the binding result is given as “binds”.
